Target: recombinant extracellular region of human calsyntenin-1 (residues 29-859) (human) (UniProt O94985)
Test: SPR

Sequence of UniProt O94985 (O94985 29-859): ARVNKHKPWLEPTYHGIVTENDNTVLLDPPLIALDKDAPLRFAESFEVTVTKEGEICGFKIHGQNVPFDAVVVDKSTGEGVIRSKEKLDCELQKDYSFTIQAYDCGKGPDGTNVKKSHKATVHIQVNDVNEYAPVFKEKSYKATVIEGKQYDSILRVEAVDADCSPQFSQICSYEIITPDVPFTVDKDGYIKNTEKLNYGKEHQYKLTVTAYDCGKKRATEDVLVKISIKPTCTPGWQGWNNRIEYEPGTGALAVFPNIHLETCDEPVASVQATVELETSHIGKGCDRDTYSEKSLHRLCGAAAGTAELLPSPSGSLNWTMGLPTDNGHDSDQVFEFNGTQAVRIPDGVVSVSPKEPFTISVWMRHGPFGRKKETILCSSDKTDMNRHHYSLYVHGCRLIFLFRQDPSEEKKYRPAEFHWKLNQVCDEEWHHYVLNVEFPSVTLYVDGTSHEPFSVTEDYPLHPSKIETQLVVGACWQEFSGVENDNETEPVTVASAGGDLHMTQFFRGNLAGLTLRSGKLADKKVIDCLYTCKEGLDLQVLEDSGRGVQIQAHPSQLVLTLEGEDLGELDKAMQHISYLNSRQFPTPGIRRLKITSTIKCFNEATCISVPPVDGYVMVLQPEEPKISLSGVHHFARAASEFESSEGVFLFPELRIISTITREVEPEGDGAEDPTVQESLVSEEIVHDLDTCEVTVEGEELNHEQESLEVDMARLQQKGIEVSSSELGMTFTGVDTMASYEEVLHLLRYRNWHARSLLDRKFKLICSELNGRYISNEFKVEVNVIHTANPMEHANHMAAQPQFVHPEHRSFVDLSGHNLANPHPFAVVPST

Kd: 240 nM
Substance: fibrillin-1 fragment PF1 (from UniProt P35555 45-2731) (domain or fragment)
